Assays:
[1] = biological target: the molecule itself; assay: SEC; isolated FLNC fragments, 0.1 mg in 100 µL, Superdex 200 10/300, 0.5 mL/min, 50 mM Na-phosphate pH 7.4, 150 mM NaCl, 0.1 mM EDTA, 0.1 mM PMSF, 2 mM DTT, room temperature; apparent molecular weights from column calibration
[2] = biological target: T1, small heat shock protein HspB7 (full-size) (UniProt Q9UBY9 1-170); assay: native gel or EMSA; fixed HspB7 (25 or 30 µM) or AcdB7 (35 µM) in 20 mM Tris-acetate pH 7.6, 100 mM NaCl titrated with 0-120 µM FLNC fragment, 30 min at 30 °C; native 12.5% polyacrylamide gel, Tris-glycine pH 8.6; band intensities, semi quantitative, apparent affinity; conditions: both partners purified
T1 construct: small heat shock protein HspB7, full-size; also called full-size HspB7; full-length HspB7; source: recombinant, expressed and purified as described earlier [25,34]
T1 sequence (Q9UBY9 whole entry, the tested form may be a part): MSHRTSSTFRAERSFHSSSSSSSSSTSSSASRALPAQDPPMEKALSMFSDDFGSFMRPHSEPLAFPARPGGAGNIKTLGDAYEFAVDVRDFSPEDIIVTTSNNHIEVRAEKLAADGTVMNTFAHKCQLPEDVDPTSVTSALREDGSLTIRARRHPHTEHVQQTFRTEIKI

[3] = biological target: T2, α-crystallin domain of HspB7 (AcdB7) containing residues 77-155 (UniProt Q9UBY9 77-155); assay: as above; conditions: both partners purified
T2 construct: small heat shock protein HspB7, α-crystallin domain, residues 77-155; source: recombinant, expressed and purified as described earlier [25,34]
T2 sequence (Q9UBY9 77-155): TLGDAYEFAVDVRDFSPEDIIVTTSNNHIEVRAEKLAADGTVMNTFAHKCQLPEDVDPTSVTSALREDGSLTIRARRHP

[4] = biological target: the molecule itself; assay: cross-linking; isolated proteins or equimolar mixture, 30 min at 30 °C in 25 mM HEPES/NaOH pH 7.4, 100 mM NaCl, 2 mM DTT, then 0.0125% glutaraldehyde 30 min at 30 °C; SDS gel and anti-HspB7 immunoblot

B1: wild-type (WT) C-terminal fragment of human filamin C (FLNC) containing immunoglobulin-like domains 22-24 (domain or fragment, UniProt Q14315 2403-2725, looked up)
chain: SLSDDARRLTVTSLQETGLKVNQPASFAVQLNGARGVIDARVHTPSGAVEECYVSELDSDKHTIRFIPHENGVHSIDVKFNGAHIPGSPFKIRVGEQSQAGDPGLVSAYGPGLEGGTTGVSSEFIVNTLNAGSGALSVTIDGPSKVQLDCRECPEGHVVTYTPMAPGNYLIAIKYGGPQHIVGSPFKAKVTGPRLSGGHSLHETSTVLVETVTKSSSSRGSSYSSIPKFSSDASKVVTRGPGLSQAFVGQKNSFTVDCSKAGTNMMMVGVHGPKTPCEEVYVKHMGNRVYNVTYTVKEKGDYILIVKWGDESVPGSPFKVKVP
notes: human filamin C (FLNC), Uniprot Q14315, immunoglobulin-like domains 22-24, amino acid residues 2403-2725; Dimer by SEC and cross-linking; also called WT FLNC; WT FLNC fragment; source: recombinant, expressed and purified as described earlier [23]; (ion-exchange and size-exclusion chromatography)
stoichiometry N [1]: 2
EC50 [2]: ~10 µM
stoichiometry N [2]: 2 HspB7/FLNC
EC50 [3]: ~20 µM
stoichiometry N [3]: 1

B2: EN/D mutant (p.Glu2472_Asn2473delinsAsp) of the FLNC fragment containing immunoglobulin-like domains 22-24 (domain or fragment, human, UniProt Q14315 2403-2725, looked up)
chain: SLSDDARRLTVTSLQETGLKVNQPASFAVQLNGARGVIDARVHTPSGAVEECYVSELDSDKHTIRFIPHDGVHSIDVKFNGAHIPGSPFKIRVGEQSQAGDPGLVSAYGPGLEGGTTGVSSEFIVNTLNAGSGALSVTIDGPSKVQLDCRECPEGHVVTYTPMAPGNYLIAIKYGGPQHIVGSPFKAKVTGPRLSGGHSLHETSTVLVETVTKSSSSRGSSYSSIPKFSSDASKVVTRGPGLSQAFVGQKNSFTVDCSKAGTNMMMVGVHGPKTPCEEVYVKHMGNRVYNVTYTVKEKGDYILIVKWGDESVPGSPFKVKVP
notes: human filamin C (FLNC), Uniprot Q14315, residues 2403-2725, with Glu2472 and Asn2473 replaced by Asp (mutation associated with restrictive cardiomyopathy); also called c.7416_7418delGAA; source: recombinant, expressed and purified as described earlier [23]; (ion-exchange and size-exclusion chromatography)
stoichiometry N [1]: 2
EC50 [2]: ~10 µM
stoichiometry N [2]: 2 HspB7/FLNC
EC50 [3]: ~20 µM
stoichiometry N [3]: 1

B3: ΔPGL mutant (p.P2643_L2645del) of the FLNC fragment containing immunoglobulin-like domains 22-24 (domain or fragment, human, UniProt Q14315 2403-2725, looked up)
chain: SLSDDARRLTVTSLQETGLKVNQPASFAVQLNGARGVIDARVHTPSGAVEECYVSELDSDKHTIRFIPHENGVHSIDVKFNGAHIPGSPFKIRVGEQSQAGDPGLVSAYGPGLEGGTTGVSSEFIVNTLNAGSGALSVTIDGPSKVQLDCRECPEGHVVTYTPMAPGNYLIAIKYGGPQHIVGSPFKAKVTGPRLSGGHSLHETSTVLVETVTKSSSSRGSSYSSIPKFSSDASKVVTRGSQAFVGQKNSFTVDCSKAGTNMMMVGVHGPKTPCEEVYVKHMGNRVYNVTYTVKEKGDYILIVKWGDESVPGSPFKVKVP
notes: human filamin C (FLNC), Uniprot Q14315, residues 2403-2725, with deletion of the tripeptide 2643-PGL-2645 (mutation associated with restrictive cardiomyopathy); also called ΔPGL FLNC; c.7927_7935del; source: recombinant, expressed and purified as described earlier [23]; (ion-exchange and size-exclusion chromatography)
stoichiometry N [4]: 2
